The assay deals with human STING C-terminal domain (CTD) containing residues 155 to 341 (human) (UniProt Q86WV6). Nature of the assay: SEC. For orientation: Size exclusion chromatography separates by hydrodynamic size, large species first.

The stoichiometry N is the number of molecules, sites or subunits per partner or assembly. “human STING C-terminal domain (CTD) containing residues 155 to 341 (from UniProt Q86WV6 155-341) (domain or fragment)” registered a stoichiometry N of 2.

These data come from paper PMC3392545.
